# Data taken from the DeepSol protein solubility set.
# Experiment: soluble on expression in E. coli; label from the status in PepcDB or PDB records
row,Sequence,soluble on expression in E. coli
1,MNMVGHSYGNIAIVYYMLQHGSDTSLPKLVKQVDIAGHFNGIIGMDEPEENSLDGEGKPTSMTGSYEELLSLGDNYPQGQVEVLNIYGNTGKESDERVTNLSSQSLAYLLKGHVKSYQEKKITGLNGQHSKLHETTLVDKPLNAFLWGK,not soluble
2,MGSDKIHHHHHHMTISQQAVLAATAITKTFGAHVALHTIDIAFRPGEVHALLGENGAGKSTLIKILTGAYTPDAGTVLVDGAPMSFSTPQQAQAAGIGTVYQEVNLLTNMTVADNLFIGRQPRRFGLVDHRTMEREARRILSGYGLDIDVRAELATFSVAVQQIIAIARAVELSGKVLILDEPTASLDRSEVLKLFEIVRGLKARGLAIVFITHFLDQVFELCDHATVLRNGKLVGSQPIDTLNRTTLVRMMLGKDLSLHHDAVAGIEAEVGESLMQFTGYGLDGKVQPFTLTIHKGEVIGVAGLLGSGRTEMARLMFGIDSADKGELTLNGASFKIRSPRQAIDLGFGFCPEDRKADGIFGDLSVRENIIIAMQAKLGWLRTLSYDEQMEIAGQFIEALDIRTASAELPIKLLSGGNQQKAILARWLATDPRFLILDEPTRGIDVGAHAEIVRMISRLREDGLALIVISSELDEVVSYSSRIVVMRDRAMVAELHGADIAPDVIVQTIAAQSNTPAQSEGAFS,not soluble
3,MDFDYVIAGGGSAGCTLAARLSEDPSKTVCLIEAGGAGSNLLIRAPAGIIALLPGRPKINNWAFETVPQQGLGGRKGYQPRGKALGGSSAINAMLYTRGHRGDYDEWADLGCDGWSWDEVLPYFRRAEGNQRGADALHGGDGPLRVAEQQEPRPLSRAFVEACGENQIRRNDDFNGVEQEGAGLYQVTQFWGERRNGERCSVAAAYLQPAMNRSNLTVITGAHATAVILDGKRATGVRYRAGKDEAVAKARREVIVCGGAFGSPQLLLLSGIGPAAELAMHGIPVIHELPGVGKNLQDHLDFIMGWTSKDADMMGIGLRGLPGLLRHMLRWRKDGGGMIATPYAEGGAFLKSDPAIERPDLQLHFCIAIVDDHGRKLHMGYGFSCHVCVLRPHSRGEVGLSTHDPMAPPRIDPRFLSDERDAELLLKGVRMMRGILEAPALARYRHKEIYTAGVSSDADLMSHIRARADTIYHPAGTCKMGVDELAVVDPQLRVHGLEALRVVDASVMPTLIGGNTNAPTIMIAEKAADMIKAAALEHHHHHH,not soluble
4,MKLTDRWFTSISEDEKGNIVFVNGRLELDEFRLSGKLKIRIEIRWPYEADEQGLPTESAGKRIEEIELLIRKAMEKDKLAIMTGNYTGGGTKYWVYYARTERVFGERLNEVLAPYETLPLEIECEVDTDWEEYLDMLSMKDENSI,not soluble
5,MNEQRLSMRLERVATHVPAGARLADIGSDHGYLPVALLNRGAVSAAVAGEVALTPFYAAERTVRENDLDQQISVRLADGLAAIEPTDRITAISLCGMGGETIRDILESGKARLSGQERLILQPNGGEQPLRVWLMEHNYRILDEEVLRENRFDYEIIVAERTGPMIYTAEQLYFGPIQMQTRSPAFLLKWQRLLGKKHKALSNFARARKAVPEEKMQDLAQQIRWITALLN,not soluble
6,MSLDAVRAVLIDIDGVLTVSWKPLPGAIEALHRIRDASLGVVLLTNTTSRTRASIAATLGASGFPVSAEDILTAPTATAAHLTDHCPGARCSLLNSGDIREDLVGVTLLDDTDTVPDVVIVGGAGPEFDYAALNRVFGHLQRGARLVAMHRNLYWRTDRGLDLDSGAFLLGLEHAAGTRAEITGKPAPAFFEAALTRLGAGPGQAVMVGDDIESDVLAAQRTGITGVLVKTGKYLPETHHAASARPDHVLDSVADLPALLDSVVREGHHHHHH,soluble
7,MSLSDTTKTASTRTSVTDQEALDFHAQGRPGKLEITPTKPMATQRDLSLAYSPGVAVPVKAIAENPATAYDYTTRGNMVAVISNGTAILGLGNLGALASKPVMEGKSVLFKRFADVDSIDLEVDTEDADEFINCVRYLGPSFGGINLEDIKAPECFIIESRLRELMDIPVFHDDQHGTAIIAAAGLINAIELTGRDFKTTKLVCNGAGAAAIACMDLIKAMGFNPENITLCDTKGVIYQGRTEGMNQWKSAHAVKTDRRTLTEAMNGADVVFGLSQKGAFTEEMIRSMAPKPIIFAMANPDPEITPEEVSRIRDDAIMATGRSDYPNQVNNVLGFPYIFRGALDVRARQINDAMKIAAAQALADLAREDVPDDVAAAYQGNRPRFGSQYIIPVPFDPRLISAIPVAVAKAAIETGVAQREIPDLDAYARELSARRDPMASTTQRLYERVRRSPKRVVFAEAEEEQVMRAAISFTAQGLGTAILLGRDDIIKANAERAGIDLDRANIEITNARLSSRVDAYVDYLYARLQRGGFLLRDVQRLIHNDRNHFAACMVAMGDADAVVTGVTRNYSTALEDIRRCINTKPGHRVIGVSLVVSRNRTVFVADTAVHDMPNAEDLADIAEEAAHLARRFGYEPRVAMLAYSTFGQPVGERSDKVREAVKILDKRNVNFEVDGEMSADVALNHQRMQSQYPFARLSGAANVLVMPAIHSASISTKMLQELGGATVIGPLLVGLDKSVQITSMGAKDSDIVNMAAIAAYNAGREGHHHHHH,not soluble
8,MDGVHDLAGVQGFGKVPHTVNADIGPTFHAEWEHLPYSLMFAGVAELGAFSVDEVRYVVERMEPRHYMMTPFYERYVIGVATLMVEKGILTQDELESLAGGPFPLSRPSESEGRPAPVETTTFEVGQRVRVRDEYVPGHIRMPAYCRGRVGTISHRTTEKWPFPDAIGHGRNDAGEEPTYHVKFAAEELFGSDTDGGSVVVDLFEGYLEPAA,soluble
9,MSLENKENLVVIDLAIAEDSIQKKNIVYDKNGQNHFDVISAFIKSIRGSDPDATLYWLANMVEAGEDPNFIFRRLLISACEDIGLADPNAIVVVQSCCDAFDRVGFPEGLFFLSQASLYLAISPKSNSTKSIFKAMEAIKATNVSLVPNHLKNNASNYLNPHNYQGKWLQQEYLPTDLQGIKFWKPKDSGWEKNKYEDLPKKQKSEGHHHHHH,soluble
10,MSLIRIDFSQLHQAREDAAAAMPSIAGKKILMGFWHNWPAGAADGYQQGSFANIALEDVPSEYNVVAVAFMKGRGIPTFQPYNLSDAEFRRQVGVLNAQGRAVLISLGGADAHIELHAGQEQALAAEIVRLVETYGFDGLDIDLEQSAIDLADNQRVLPAALKLVREHYAGQGKHFIVSMAPEFPYLHKNGKYVPYLQALEGVYDFIAPQYYNQGGDGLWVQEANGGKGAWIAQNNDAMKEDFLYYLTESLATGSRDFVRIPAQRLAIGLPSNVDAAATGYVIDPAAVSNAFRRLEAAGHAIKGLMTWSVNWDDGLNKRGERYNWEFRKRYASLIHDGEGGDQRPAAPQGLRLLERGETSLVLAWNASSGQRPIDYYSLYRDGAMVGQSAALGSTDSGLTADTRYSYFVTATDTQGNQSLPSEGLEVSTSGGAVDPQFPQWRENQAYRVDDGVTYEGLRYLCLQAHTSNSGWTPPVAFTLWREGGSHHHHHH,soluble
11,MRAFSFRPFFLQALVVMPEYVNWLRHASPYINAHRDCTFVVMLPGDGVAHPNFGNIVHDLVLLHSLGVRLVLVHGSRPQIESRLAQRGITPRYHRDMRITDTETLECVIDAVGQLRISIEARLSMDMAASPMQGSRLRVTSGNVVTARPIGVLEGIDYQHTGEVRRVDRKGINRLLDERHIVLLSPLGYSPTGEIFNLACEDVATRAAIDLAADKLLLFGAETGLLDEQGRLVRELRPQQVPAHLQRLGGNYQAELLDAAAEACRGGVARSHIVSYAEDGALLTELFTRDGGGTLVAQEQFELVREAAIEDVGGLMDLITPLEEQGILVRRSREVLEREITQFSVVEREGLIIACAALYPIADSESGELACLAVNPEYRHGGRGDELLERIENRARALGIKTLFVLTTRTAHWFRERGFEPSSVDRLPSARASLYNFQRNSKIFEKAI,not soluble
12,ASEEDLAAATEKMQSMKGKKSQAAAALEAEQAKAEKRLSCLLKARTKLSFRVIRDGIKCHGGIHLKKQSEKAELDISVTNTAINNLPSDADIVITHKDLTDRAKAKLPNATHISVDNFLNSPKYDELIEKLKSNLIEREYCHASTRKGNIKLNQTVSSKEEAIKLAGQTLIDNGYVTEDYISKMFDREETSSTFMGNFIAIPHGTEEAKSEVLHSGISIIQIPEGVEYGEGNTAKVVFGIAGKNNEHLDILSNIAIICSEEETLNA,not soluble
13,MAHHHHHHMLEFLVTTQPSRRIVCRNEATYIYFWPYLFSREVPGALQLCRWAARRGAAVHGAVRLQPSETPNAAHRCYLTVTRPVAAGRTLISLPAALSLSVSSPESRKGTFIGRYSALESFAQLLARELHNPRSPHRAYLEFLHDLHNSGTDEVSDALLAGLRYERAAVLVDQLDAMYAGNSLQARGAANAPFLDKEQLTSASQRVEWVRLHQLQRRLEQGVPHFAAKSTAWALSMALSRAMEDDAEGLSLYPLIDFCAHSFEPNAYICVGEDERIAATRPVRWADSSGEPLLHVVTRRLLHAGEKVTLRWHWRPVKTTEDAEFWQMRFGYVPQSE,not soluble
14,MSLKMQEPIEDPLSKLTQYSGKTFVIKYGGSIMKNKKAEEAFIKDVKYLRKLGINIVIVHGGGPEISRWLELSGIESRFVDGLRVTDEKVIEIVQMVLSGKINKKLSLQFNIDGVNAVGLSGVDNKLIEATKKYVYKGNETIDIGYVGKVTKVNSEFIKELLKGGQVPVIAPIGCDNKGNVYNINADYAAAFISSALDAEKLIILTDVEGVYRNINDPQSIIHEIDIKDVNYYIKEEIIKGGMIPKVQCCASAIENGTKNVQLIDGRNDHCLINDILNYRGTIISYRSGVKCQKAIEGHHHHHH,soluble
15,MTIKWIDWVKQIQSIAQAGLTYSKDVYDIERFQQLRDISISMMSHYTKTDWEVVEKLFASETGYQTPKVDIRAVVFQNEKLLFVKEKSDGKWALPGGWADVGYTPTEVAAKEVFEETGYEVDHFKLLAIFDKEKHQPSPSATHVYKIFIGCEIIGGEKKTSIETEEVEFFGENELPNLSIARNTEDQIKEMFAYMKDPQKEKLID,not soluble
16,MSKLEFLAFYDELTGLPNKNSLIRWLNLKVSQMDCIDTYLIFLEVRDLEKLNVTYGYDLVDELIIHISKRIKDIAGEGNKAFKIGFDRFAIICKSENISDFIERMLSQLLLPYNVNGNLIRVNFNIGAAQIENSNEAAANLMRRCDLALIKAKEEGLNEYVIFKPSIEIQTLEHHHHHH,soluble
17,MAKEFLIELGTEELPPKQLRTLAEAFAANFAAELATADIAHEGVTWFATPRRLALKVANLAESQPDRVVEKRGPAVNVAFDADGKPTKAAEGWARGNGITVEQAERLVTDKGEWLLFKEQVQGQQTASVVVEMAAKALANLPIAKPMRWGDKETQFIRPVKTLTILFGSELIQGEILGVASARTLRGHRFMGEAEFTIESAEQYPAILEERGKVIADYATRKAMIIEGSQQAAQQLGGIADLEDALVEEVTSLVEWPVVMTAKFEEKFLKVPAEALVYTMKGDQKYFPVYDASKKLLPNFIFVSNIESKEPRHIVEGNEKVVRPRLADAEFFFNTDRKRPLVDRLPLLENAIFQQQLGTIKDKTDRITELAGYIAEQIGADVEKSKRAGLLAKCDLMTSMVFEFTDTQGVMGMHYARHDGEAEEVAVALNEQYMPRFAGDELPSRGVSAAVAMADKLDTIVGIFGIGQAPKGSDPFALRRASLGVLRILVEYGYQLDLVDLIAKAKSLFGDRLTNANVEQEVIEFMLGRFPTWYQDAGFSIDIIQAVLARNPTKPADFDQRVKAVSHFRALEEAEALAAANKRVGNILAKYDGELGEEIDLALLQEDAEKALAEAVEIMAEALEPAFATGNYQEALSKLAGLRAPVDAFFDNVMVMADDEALKKNRLTLLNKLRNLFLQIADISLLQK,not soluble
